According to patent publication US20130251731A1, “Tau Acetylation in the Pathogenesis of Alzheimers Disease and Other Related Tauopathies” (THE TRUSTEES OF THE UNIVERSITY OF PENNSYLVANIA, priority 2012, published 2013):

Molecular target: microtubules of transfected QBI-293 cells
Assay: cell-based or functional assay

% MT bundling from tau-expressing cells [% bundling] | Substance
7 | tau-4KQ acetylation mimetic (T40 K163/280/281/369Q) (from UniProt P10636 1-441)
50 | tau-4KR non-mimetic mutant (T40 K163/280/281/369R) (from UniProt P10636 1-441)
40 | tau-T40 K280Q mimetic (from UniProt P10636 1-441)
55 | wild-type tau-T40 (2N4R), not acetylated (from UniProt P10636 2-441)
